Where a SMILES comes first, the peptide text is derived from it. The star is where a group is joined. X1 = COc1ccc2c3c1O[C@H]1C(O*)=CC[C@H]4[C@@H](C2)N(C)CC[C@]314
Assay: Intravenous bioavailability of hydrocodone conjugates in rats, LC/MS/MS
Conditions: intravenous
[1] = 1 mg/kg dose, hydrocodone plus hydromorphone
[2] = 1 mg/kg dose, relative to hydrocodone bitartrate
[3] = 1 mg/kg hydrocodone base content
[4] = 1 mg/kg hydrocodone base content, 0 h
[5] = 1 mg/kg hydrocodone base content, 0.1 h
[6] = 1 mg/kg hydrocodone base content, 0.5 h
[7] = 1 mg/kg hydrocodone base content, 1.0 h
[8] = 1 mg/kg hydrocodone base content, 2.0 h
[9] = 1 mg/kg hydrocodone base content, 4.0 h

## CC[C@H](C)[C@H](NC(=O)[C@H](Cc1ccccc1)NC(=O)[C@H](Cc1ccccc1)NC(=O)[C@H](Cc1ccc(O)cc1)NC(=O)[C@@H](N)Cc1ccc(O)cc1)C(=O)OC1=CC[C@H]2[C@H]3Cc4ccc(OC)c5c4[C@@]2(CCN3C)[C@H]1O5 [YYFFI[SEQ ID NO: 8]-HC, Tyr-Tyr-Phe-Phe-Ile[SEQ ID NO: 8]-(6-O)-Hydrocodone] (H-YYFFI-X1)
1 mg/kg dose, 5 Minutes
  hydrocodone plus hydromorphone concentration: 171 ng/mL
1 mg/kg dose, 15 Minutes
  hydrocodone plus hydromorphone concentration: 28 ng/mL
1 mg/kg dose, 30 Minutes
  hydrocodone plus hydromorphone concentration: 22 ng/mL
1 mg/kg dose, 60 Minutes
  hydrocodone plus hydromorphone concentration: 18 ng/mL
[1]
  AUC (ng/ml h) 0-1 h: 40 ng·h/mL
  Cmax: 171 ng/mL
[2]
  Percent HC (AUC): 29%
  Percent HC (Cmax): 72%
[3]
  HC (hydrocodone) AUC, Percent relative to hydrocodone bitartrate: 19%
  HC (hydrocodone) Cmax: 8.7 ng/mL
  HC (hydrocodone) Cmax, Percent relative to hydrocodone bitartrate: 20.2%
  HC + HM AUC, Percent relative to hydrocodone bitartrate: 36%
  HC + HM Cmax: 22.6 ng/mL
  HC + HM Cmax, Percent relative to hydrocodone bitartrate: 10.8%
  HM (hydromorphone) AUC, Percent relative to hydrocodone bitartrate: 33%
  HM (hydromorphone) Cmax: 31.3 ng/mL
  HM (hydromorphone) Cmax, Percent relative to hydrocodone bitartrate: 12.4%
[4]
  Mean HC (hydrocodone) concentration: 0 ng/mL
  Mean HC + HM concentration: 0 ng/mL
  Mean HM (hydromorphone) concentration: 0 ng/mL
[5]
  Mean HC (hydrocodone) concentration: 8.75 ng/mL
  Mean HC + HM concentration: 22.6 ng/mL
  Mean HM (hydromorphone) concentration: 31.3 ng/mL
[6]
  Mean HC (hydrocodone) concentration: 1.44 ng/mL
  Mean HC + HM concentration: 13.5 ng/mL
  Mean HM (hydromorphone) concentration: 14.9 ng/mL
[7]
  Mean HC (hydrocodone) concentration: 0.92 ng/mL
  Mean HC + HM concentration: 13.0 ng/mL
  Mean HM (hydromorphone) concentration: 13.9 ng/mL
[8]
  Mean HC (hydrocodone) concentration: 0.41 ng/mL
  Mean HC + HM concentration: 13.1 ng/mL
  Mean HM (hydromorphone) concentration: 13.5 ng/mL
[9]
  Mean HC (hydrocodone) concentration: 0.33 ng/mL
  Mean HC + HM concentration: 8.5 ng/mL
  Mean HM (hydromorphone) concentration: 8.8 ng/mL
